The text below walks through data of paper PMC4330359, “DNA-mediated cooperativity facilitates the co-selection of cryptic enhancer sequences by SOX2 and PAX6 transcription factors”.

In data set [1] the target is Sox2-HMG long (109 aa);Pax3-PRD (mouse;mouse?, UniProt P48432;P24610 41-149;34-161, |). Put plainly: EMSA; cooperative; EMSA: 10 mM Tris-HCl pH 8.0, 0.1 mg/ml BSA, 50 uM ZnCl2, 100 mM KCl, 10% glycerol, 0.1% IGEPAL CA-630, 2 mM 2-mercaptoethanol, 1-2 h, gel at 4 C, 100-300 nM DNA; NMR: 50 mM K phosphate, 100 mM NaCl, pH 7.0, 298 K. As to conditions: protein: recombinant;recombinant; tags: ;; copies: 1;1; label: 5'-FAM or 5'-Cy5; blunt. In general terms: In EMSA bound probe runs differently from free probe, usually more slowly.
Chain of Sox2-HMG long (109 aa);Pax3-PRD (P48432 41-149, chain 1 of 2): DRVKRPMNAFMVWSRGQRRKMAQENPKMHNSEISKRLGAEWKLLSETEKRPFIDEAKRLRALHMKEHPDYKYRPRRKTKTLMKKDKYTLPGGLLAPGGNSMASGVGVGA
Chain of Sox2-HMG long (109 aa);Pax3-PRD (P24610 34-161, chain 2 of 2): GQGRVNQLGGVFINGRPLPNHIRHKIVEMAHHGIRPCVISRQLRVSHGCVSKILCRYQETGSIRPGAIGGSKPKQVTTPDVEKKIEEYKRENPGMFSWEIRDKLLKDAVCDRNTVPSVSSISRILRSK

Data set [2] addresses Sox2-HMG long (109 aa);Pax8-PRD (mouse;mouse?, UniProt P48432;Q00288 41-149;9-135, |). The description is as above. As to conditions: protein: recombinant;recombinant; tags: ;; copies: 1;1; label: 5'-FAM or 5'-Cy5; blunt.
Data set [3] deals with Sox2-HMG long (109 aa);Pax2-PRD (mouse;mouse?, UniProt P48432;P32114 41-149;15-141, |). Described as above. As to conditions: protein: recombinant;recombinant; tags: ;; copies: 1;1; label: 5'-FAM or 5'-Cy5; blunt.
Chain of Sox2-HMG long (109 aa);Pax2-PRD (P48432 41-149, chain 1 of 2): as the sequence (P48432 41-149, chain 1 of 2) above
Chain of Sox2-HMG long (109 aa);Pax2-PRD (P32114 15-141, chain 2 of 2): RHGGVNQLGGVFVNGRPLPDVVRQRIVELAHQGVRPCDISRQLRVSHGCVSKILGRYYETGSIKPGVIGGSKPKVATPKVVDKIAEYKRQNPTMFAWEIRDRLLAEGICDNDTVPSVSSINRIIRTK
For data set [4], the target named is Sox2-HMG long (109 aa);Pax9-PRD (mouse;mouse?, UniProt P48432;P47242 41-149;4-130, |). The data set is described as above. As to conditions: protein: recombinant;recombinant; tags: ;; copies: 1;1; label: 5'-FAM or 5'-Cy5; blunt.
Chain of Sox2-HMG long (109 aa);Pax9-PRD (P48432 41-149, chain 1 of 2): as the sequence (P48432 41-149, chain 1 of 2) above
Chain of Sox2-HMG long (109 aa);Pax9-PRD (P47242 4-130, chain 2 of 2): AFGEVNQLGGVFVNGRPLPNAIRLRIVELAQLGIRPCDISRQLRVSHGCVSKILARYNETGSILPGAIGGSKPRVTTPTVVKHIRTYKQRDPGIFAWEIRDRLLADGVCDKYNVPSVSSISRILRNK
The target of data set [5] is Sox2-HMG long (109 aa);Pax6-PRD R44Q (mouse;mouse?, UniProt P48432;P63015 41-149;4-130, |R44Q). Put plainly: EMSA; cooperativity not affected by R44Q; EMSA: 10 mM Tris-HCl pH 8.0, 0.1 mg/ml BSA, 50 uM ZnCl2, 100 mM KCl, 10% glycerol, 0.1% IGEPAL CA-630, 2 mM 2-mercaptoethanol, 1-2 h, gel at 4 C, 100-300 nM DNA; NMR: 50 mM K phosphate, 100 mM NaCl, pH 7.0, 298 K. As to conditions: protein: recombinant;recombinant; tags: ;; copies: 1;1; label: 5'-FAM or 5'-Cy5; blunt.
Chain of Sox2-HMG long (109 aa);Pax6-PRD R44Q (P48432 41-149, chain 1 of 2): as the sequence (P48432 41-149, chain 1 of 2) above
Chain of Sox2-HMG long (109 aa);Pax6-PRD R44Q (P63015 4-130 R44Q, chain 2 of 2): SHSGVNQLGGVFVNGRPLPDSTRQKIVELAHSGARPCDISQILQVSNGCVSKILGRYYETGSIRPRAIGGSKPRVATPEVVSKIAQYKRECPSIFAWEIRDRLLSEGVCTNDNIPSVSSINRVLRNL

Data set [6] concerns the target T1, Sox2-HMG long (109 aa) (mouse, UniProt P48432 41-149). Put plainly: NMR; 1:1.2 Sox2:DC5; EMSA: 10 mM Tris-HCl pH 8.0, 0.1 mg/ml BSA, 50 uM ZnCl2, 100 mM KCl, 10% glycerol, 0.1% IGEPAL CA-630, 2 mM 2-mercaptoethanol, 1-2 h, gel at 4 C, 100-300 nM DNA; NMR: 50 mM K phosphate, 100 mM NaCl, pH 7.0, 298 K. As to conditions: protein: recombinant; blunt.
Data set [7] deals with T1, Sox2-HMG long (109 aa). Put plainly: EMSA; binary Sox2-DNA complex prominent; EMSA: 10 mM Tris-HCl pH 8.0, 0.1 mg/ml BSA, 50 uM ZnCl2, 100 mM KCl, 10% glycerol, 0.1% IGEPAL CA-630, 2 mM 2-mercaptoethanol, 1-2 h, gel at 4 C, 100-300 nM DNA; NMR: 50 mM K phosphate, 100 mM NaCl, pH 7.0, 298 K. As to conditions: protein: recombinant; label: 5'-FAM or 5'-Cy5; blunt.

T1 sequence (P48432 41-149): as the sequence (P48432 41-149, chain 1 of 2) above
Chain of Sox2-HMG long (109 aa);Pax8-PRD (P48432 41-149, chain 1 of 2): as above
Chain of Sox2-HMG long (109 aa);Pax8-PRD (Q00288 9-135, chain 2 of 2): as the sequence (P32114 15-141, chain 2 of 2) above, with R1G, V5L, V11A, D20E, E28D, K64R, D82E, A85G, E86D, I108V counted along it

B1: DC5 (dsDNA)
DNA 1: AAATATTCATTGTTGTTGCTCACCTACCATGGATCC
DNA 2: GGATCCATGGTAGGTGAGCAACAACAATGAATATTT
Consider B1, for which the binding result in data set [1], in data set [2], in data set [3], in data set [4] and in data set [5] was “binds” each time.

B2: DC5 31-mer (NMR) (dsDNA)
DNA 1: TTCATTGTTGTTGCTCACCTACCATGGATCC
DNA 2: GGATCCATGGTAGGTGAGCAACAACAATGAA
Turning to B2, the binding result in data set [6] was “binds”.

B3: DC5con (dsDNA)
DNA 1: AAATATTCATTGTTGATGTTCACGCATCATGGATCC
DNA 2: GGATCCATGATGCGTGAACATCAACAATGAATATTT
Turning to B3, the binding result in data set [7] is reported as “binds”.
